Source: paper PMC10349104
Several values for one entry are separate records, joined by “and”; a condition that tells them apart may be missing. Equal values may be shown once.

Key:
[1] = biological target: EVA-A(L39P) (Amblyomma americanum); test: SPR
[2] = biological target: EVA-A(1-98) (A. americanum); test: SPR
[3] = biological target: EVA-A(21-102) (A. americanum); test: SPR
[4] = biological target: EVA-A(DN) (Amblyomma americanum); test: SPR
[5] = biological target: EVA-A(Y44A) (Amblyomma americanum); test: SPR
[6] = biological target: EVA-A(C8) (A. americanum); test: SPR
[7] = biological target: EVA-A(C8) (Amblyomma americanum); test: SPR
[8] = biological target: EVA-A(L39P) (A. americanum); test: SPR
[9] = biological target: EVA-A(Y44A) (A. americanum); test: SPR
[10] = biological target: EVA-A(DC) (Amblyomma americanum); test: SPR
EVA-4 = EVA-4 (UniProt P0C8E9); test: not stated; Kd of EVA-4 for human chemokines, three readings (source data of Supplementary Fig. 7); method and conditions not told for EVA-4

Chain of CCL13, Q99616 17-98 (ligand; other documents disagree on this pair) (Q99616 17-98): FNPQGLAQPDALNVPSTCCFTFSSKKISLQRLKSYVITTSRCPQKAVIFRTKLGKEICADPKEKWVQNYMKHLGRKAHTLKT
Chain of CCL13 (Q99616 17-98): as above
Chain of CCL8 (P80075 24-99): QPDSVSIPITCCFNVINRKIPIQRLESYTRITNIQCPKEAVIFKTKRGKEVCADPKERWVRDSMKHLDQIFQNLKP
Chain of CCL11 (P51671 24-97): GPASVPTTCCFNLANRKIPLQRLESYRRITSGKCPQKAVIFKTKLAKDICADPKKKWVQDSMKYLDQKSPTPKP
Chain of CCL4 (P13236 24-92): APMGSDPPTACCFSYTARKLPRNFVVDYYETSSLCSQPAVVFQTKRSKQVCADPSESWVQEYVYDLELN
Chain of CCL5 (P13501 24-91): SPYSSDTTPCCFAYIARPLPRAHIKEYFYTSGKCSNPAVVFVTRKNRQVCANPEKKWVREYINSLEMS
Chain of CCL3 (P10147 24-92): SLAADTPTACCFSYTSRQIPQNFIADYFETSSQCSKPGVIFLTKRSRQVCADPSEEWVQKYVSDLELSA

Row | Substance | Kd [1] | koff [1] | kon [1] | Kd [2] [nM] | koff [2] [s⁻¹] | kon [2] [M⁻¹ s⁻¹] | Kd [3] [nM] | koff [3] [s⁻¹] | kon [3] [M⁻¹ s⁻¹] | Kd [4] | Kd [5] | koff [5] | kon [5] | Kd [8] [nM] | koff [8] [s⁻¹] | kon [8] [M⁻¹ s⁻¹] | Kd [9] [nM] | koff [9] [s⁻¹] | kon [9] [M⁻¹ s⁻¹] | Kd [10] | also measured
1 | CCL3 (from UniProt P10147 24-92) (ligand) | 0.356 nM and 0.205 nM and 0.394 nM | 0.000296 s⁻¹ and 0.000365 s⁻¹ and 0.000413 s⁻¹ | 831000 M⁻¹ s⁻¹ and 1.78e+06 M⁻¹ s⁻¹ and 1.05e+06 M⁻¹ s⁻¹ | 1.77 | 0.00058 | 345000 | 3.23 | 0.00144 | 449000 | 2.89 nM and 3.24 nM and 3.57 nM | 1.2 nM and 0.464 nM | 0.000428 s⁻¹ and 0.000445 s⁻¹ and 0.000452 s⁻¹ | 357000 M⁻¹ s⁻¹ and 369000 M⁻¹ s⁻¹ and 973000 M⁻¹ s⁻¹ | 0.32 | 0.0004 | 1.22e+06 | 0.95 | 0.00044 | 566000 | 1.67 nM and 1.95 nM and 1.68 nM | koff [4]: 0.00144 s⁻¹ and 0.00146 s⁻¹ and 0.00142 s⁻¹; kon [4]: 498000 M⁻¹ s⁻¹ and 452000 M⁻¹ s⁻¹ and 397000 M⁻¹ s⁻¹; Kd [6]: 40.3 nM; koff [6]: 0.0464 s⁻¹; kon [6]: 1.08e+06 M⁻¹ s⁻¹; Kd [7]: 36.6 nM and 43.3 nM and 41.1 nM; koff [10]: 0.000578 s⁻¹ and 0.000636 s⁻¹ and 0.00061 s⁻¹; kon [10]: 345000 M⁻¹ s⁻¹ and 326000 M⁻¹ s⁻¹ and 363000 M⁻¹ s⁻¹
2 | CCL4 (from UniProt P13236 24-92) (ligand) | 0.291 nM and 0.278 nM and 0.333 nM | 0.000211 s⁻¹ and 0.000223 s⁻¹ and 0.000297 s⁻¹ | 724000 M⁻¹ s⁻¹ and 801000 M⁻¹ s⁻¹ and 890000 M⁻¹ s⁻¹ | 8.56 | 0.00087 | 165000 | 4.95 | 0.00218 | 461000 | 4.26 nM and 4.21 nM and 6.38 nM | 0.753 nM and 0.7 nM and 0.513 nM | 0.000169 s⁻¹ and 0.000191 s⁻¹ and 0.000236 s⁻¹ | 224000 M⁻¹ s⁻¹ and 273000 M⁻¹ s⁻¹ and 460000 M⁻¹ s⁻¹ | 0.3 | 0.00023 | 805000 | 0.66 | 0.0002 | 319000 | 4.06 nM and 17.6 nM and 4.03 nM | koff [4]: 0.00229 s⁻¹ and 0.00217 s⁻¹ and 0.00209 s⁻¹; kon [4]: 538000 M⁻¹ s⁻¹ and 516000 M⁻¹ s⁻¹ and 328000 M⁻¹ s⁻¹; Kd [6]: 71.3 nM; koff [6]: 0.0215 s⁻¹; kon [6]: 293000 M⁻¹ s⁻¹; Kd [7]: 70.8 nM and 65.2 nM and 78.1 nM; koff [7]: 0.0133 s⁻¹ and 0.0132 s⁻¹ and 0.0382 s⁻¹; kon [7]: 188000 M⁻¹ s⁻¹ and 202000 M⁻¹ s⁻¹ and 489000 M⁻¹ s⁻¹; koff [10]: 0.000873 s⁻¹ and 0.000943 s⁻¹ and 0.00091 s⁻¹
3 | CCL5 (from UniProt P13501 24-91) (ligand) | 0.0849 nM and 0.0557 nM and 0.0372 nM | 9.49e-05 s⁻¹ and 0.000111 s⁻¹ and 5.52e-05 s⁻¹ | 1.12e+06 M⁻¹ s⁻¹ and 1.98e+06 M⁻¹ s⁻¹ and 1.48e+06 M⁻¹ s⁻¹ | 1.03 | 0.00033 | 354000 | 2.52 | 0.00195 | 777000 | 2.42 nM (2×) and 2.72 nM | 0.145 nM and 0.294 nM and 0.251 nM | 0.000189 s⁻¹ and 0.000193 s⁻¹ and 0.000245 s⁻¹ | 1.31e+06 M⁻¹ s⁻¹ and 658000 M⁻¹ s⁻¹ and 976000 M⁻¹ s⁻¹ | < 0.1 | < 0.0001 | 1.53e+06 | 0.23 | 0.00021 | 981000 | 0.973 nM and 1.11 nM and 1 nM | koff [4]: 0.00208 s⁻¹ and 0.00189 s⁻¹ and 0.00187 s⁻¹; kon [4]: 860000 M⁻¹ s⁻¹ and 783000 M⁻¹ s⁻¹ and 688000 M⁻¹ s⁻¹; Kd [6]: 16 nM; koff [6]: 0.0115 s⁻¹; kon [6]: 716000 M⁻¹ s⁻¹; Kd [7]: 15.9 nM and 16.3 nM and 16 nM; koff [7]: 0.0113 s⁻¹ and 0.012 s⁻¹ and 0.0111 s⁻¹; kon [7]: 712000 M⁻¹ s⁻¹ and 738000 M⁻¹ s⁻¹ and 697000 M⁻¹ s⁻¹; koff [10]: 0.000331 s⁻¹ and 0.000413 s⁻¹ and 0.00035 s⁻¹; kon [10]: 340000 M⁻¹ s⁻¹ and 372000 M⁻¹ s⁻¹ and 348000 M⁻¹ s⁻¹
4 | CCL8 (from UniProt P80075 24-99) (ligand) | 2.73 nM and 2.16 nM and 2.89 nM | 0.00242 s⁻¹ and 0.00205 s⁻¹ and 0.00312 s⁻¹ | 884000 M⁻¹ s⁻¹ and 949000 M⁻¹ s⁻¹ and 1.08e+06 M⁻¹ s⁻¹ | 163 | 0.0344 | 173000 | 169 | 0.0344 | 112000 | 328 nM and 146 nM and 34.1 nM | 4.46 nM and 3.95 nM and 2.44 nM | 0.00137 s⁻¹ and 0.0015 s⁻¹ and 0.0018 s⁻¹ | 307000 M⁻¹ s⁻¹ and 378000 M⁻¹ s⁻¹ and 737000 M⁻¹ s⁻¹ | 2.59 | 0.00218 | 971000 | 3.62 | 0.00156 | 474000 | 188 nM and 89.1 nM and 212 nM | 
5 | CCL11 (from UniProt P51671 24-97) (ligand) | 3.46 nM and 2.95 nM and 3.55 nM | 0.00417 s⁻¹ and 0.00433 s⁻¹ and 0.00541 s⁻¹ | 1.2e+06 1/(M s) and 1.5e+06 1/(M s) (2×) | 487 | 0.0537 | 101000 | 507 | 0.218 | 454000 | 750 nM and 383 nM and 390 nM | 1.67 nM and 1.9 nM and 1.61 nM | 0.00144 s⁻¹ and 0.00137 s⁻¹ and 0.00169 s⁻¹ | 862000 M⁻¹ s⁻¹ and 719000 M⁻¹ s⁻¹ and 1.05e+06 M⁻¹ s⁻¹ | 3.32 | 0.00372 | 1.4e+06 | 1.73 | 0.0015 | 877000 | 481 nM and 474 nM and 507 nM | koff [4]: 0.264 s⁻¹ and 0.203 s⁻¹ and 0.187 s⁻¹; kon [4]: 352000 M⁻¹ s⁻¹ and 531000 M⁻¹ s⁻¹ and 480000 M⁻¹ s⁻¹; Kd [6]: 663 nM; koff [6]: 0.196 s⁻¹; kon [6]: 236000 M⁻¹ s⁻¹; Kd [7]: 842 nM and 836 nM and 312 nM; koff [10]: 0.0537 s⁻¹ and 0.0345 s⁻¹ and 0.0604 s⁻¹; kon [10]: 112000 M⁻¹ s⁻¹ and 72900 M⁻¹ s⁻¹ and 119000 M⁻¹ s⁻¹
6 | CCL13 (from UniProt Q99616 17-98) (ligand) | 0.0116 nM and 0.0158 nM and 0.035 nM |  | 2.5e+06 M⁻¹ s⁻¹ and 4.09e+06 M⁻¹ s⁻¹ and 3.18e+06 M⁻¹ s⁻¹ | 1.42 | 0.00063 | 458000 | 0.3 | 0.00087 | 2.94e+06 | 0.298 nM and 0.304 nM and 0.285 nM | 0.0154 nM and 0.0339 nM and 0.0439 nM | 5.53e-05 s⁻¹ and 6.98e-05 s⁻¹ and 0.000105 s⁻¹ | 3.58e+06 M⁻¹ s⁻¹ and 2.06e+06 M⁻¹ s⁻¹ and 2.4e+06 M⁻¹ s⁻¹ | < 0.1 | < 0.0001 | 3.26e+06 | < 0.1 | < 0.0001 | 2.68e+06 | 1.4 nM (2×) and 1.45 nM | koff [4]: 0.000931 s⁻¹ and 0.000845 s⁻¹ and 0.000833 s⁻¹; kon [4]: 3.12e+06 M⁻¹ s⁻¹ and 2.78e+06 M⁻¹ s⁻¹ and 2.92e+06 M⁻¹ s⁻¹; Kd [6]: 2.91 nM; koff [6]: 0.00423 s⁻¹; kon [6]: 1.47e+06 M⁻¹ s⁻¹; Kd [7]: 2.74 nM and 3.26 nM; koff [7]: 0.00454 s⁻¹ and 0.00359 s⁻¹; kon [7]: 1.66e+06 M⁻¹ s⁻¹ and 1.1e+06 M⁻¹ s⁻¹; koff [10]: 0.000625 s⁻¹ and 0.000669 s⁻¹ and 0.000651 s⁻¹; kon [10]: 448000 M⁻¹ s⁻¹ and 461000 M⁻¹ s⁻¹ and 466000 M⁻¹ s⁻¹
7 | CCL13, Q99616 17-98 (ligand; other documents disagree on this pair) |  |  |  |  |  |  |  |  |  |  |  |  |  |  |  |  |  |  |  |  | Kd (EVA-4): 258 nM and 234 nM and 267 nM
